Reference: PMC7943195

Key:
[1] = target: A. baumannii 19606 PBP1B (Acinetobacter baumannii 19606 (ATCC))
[2] = target: P. aeruginosa PBP1B (Pseudomonas aeruginosa)

Substance	fold stimulation of the glycosyltransferase rate (dansyl-lipid II assay) with 0.5 µM LpoP^Ab(sol), Triton X-100-solubilised PBP1B^Ab [1] [fold]	fold increase of the final FRET with 2 µM LpoP^Pa(sol), PBP1B^Pa in liposomes [2] [fold]	fold increase of the final FRET with 2 µM LpoP^Pa(sol), Triton X-100-solubilised PBP1B^Pa [2] [fold]
A. baumannii 19606 LpoP(sol) (natural protein)	3.3	–	–
P. aeruginosa LpoP(sol) (natural protein)	–	2.2	2.1
